From patent publication US9522945B2 (OPKO Biologics Ltd., priority 2012, dated 2016)
Read-outs that look alike come from different tables or passages of the source.

How the values were obtained:
C57BL/6 mice [1] = experiment: Acute food intake study; format: in vivo
Method: At least one week before injection, mice were weighed and were transferred to a mini cage for acclimatization, (one mouse per cage). During the acclimatization period, they were handled daily and received two injections of vehicle to minimize stress during the study period. The day before the experiment, the mice were fasted. […] After injection, the mice were returned to their home cages (1 mouse per cage), and provided with a pre-weighed amount of chow. Food intake were measured 0, 1, 2, 4, 6, 8, 21, 32 and 44, 55, 68, 80, 93 and 141 h post injection by weighing the chow.
In this study, the acute effect on food intake was measured.

[2] = design: species or system rats; details: rat, in vivo
From the text: Cohorts of 3 animals per group were bled at alternating time points. […] The study was divided into 3 sequential experiments, Experiment #1 (Groups 1-4), Experiment #2 (Groups 5-9) and Experiment #3 (Groups 10-13).

C57BL/6 mice [3] = experiment: IP glucose tolerance test (IPGTT); format: in vivo; details: for effect on glucose levels / glucose tolerance, in words: Experiment 1, 100 nmol/kg IP 15 min prior to glucose IP (1.5 g/kg)
Method: Overnight-fasted mice were measured for glucose (pre-dose glucose). Immediately after, they were IP injected with one of the test articles. […] Blood glucose level were measured by tail vein sampling using a handheld glucometer.
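Throughout, for CL: blood drawn at alternating time points, with three animals in each cohort.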
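Throughout, for Tmax: blood drawn at alternating time points, with three animals in each cohort.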
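Throughout, for T½: blood drawn at alternating time points, with three animals in each cohort.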
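Throughout, for pharmacokinetic profile / PK parameters, comparison in words: blood drawn at alternating time points, with three animals in each cohort.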

B1: OXM-CTP-CTP-CTP-CTP-CTP: oxyntomodulin with five CTPs on the carboxy terminus, SEQ ID NO: 29 (protein)
chain: MATGSRTSLLLAFGLLCLPWLQEGSAHSQGTFTSDYSKYLDSRRAQDFVQWLMNTKRNRNNIASSSSKAPPPSLPSPSRLPGPSDTPILPQSSSSKAPPPSLPSPSRLPGPSDTPILPQSSSSKAPPPSLPSPSRLPGPSDTPILPQSSSSKAPPPSLPSPSRLPGPSDTPILPQSSSSKAPPPSLPSPSRLPGPSDTPILPQ
modifications: OXM-CTPx5
For B1, the “cumulative food inhibition sustained for” value (C57BL/6 mice [1]; cumulative food intake, mice) was “at least 141 hrs”, the “time for which food intake was reduced compared to vehicle” value (C57BL/6 mice [1]; single SC 1700 nmol/kg, male C57BL/6 mice) was 5 days and the “duration of food intake inhibition, percentage of food intake per time interval” value (C57BL/6 mice [1]; time intervals over the experiment (FIG. 6B), single SC, male C57BL/6 mice) was “about 80 hours”. For the same molecule, the “pharmacokinetic profile / PK parameters, comparison in words” value (“pharmacokinetic profile / PK parameters” for short) [2] was “superior in these parameters compared to other variants”, the CL ([2]; sc) was 5.77 mL/min/kg and the Tmax ([2]; sc) was 8 h. For the same molecule, the T½ ([2]; sc) was 9.63 h and the Vd ([2]; sc) was 4.812 L/kg.

B2: OXM-CTP-CTP: oxyntomodulin with two CTPs in tandem on the carboxy terminus, SEQ ID NO: 21, expressed in CHO cells (protein)
chain: LEDMATGSRTSLLLAFGLLCLPWLQEGSAHSQGTFTSDYSKYLDSRRAQDFVQWLMNTKRNRNNIASSSSKAPPPSLPSPSRLPGPSDTPILPQSSSSKAPPPSLPSPSRLPGPSDTPILPQ
modifications: OXM-CTP-CTP
With B2 the “pharmacokinetic profile / PK parameters” value [2] was “superior PK parameters as compared to the CTP-OXM-CTP-CTP variant”, the “AUC(0-t)” value ([2]; sc, 230 ug/kg) was 697.00 ng·h/mL and the “AUC∞” value ([2]; sc, 230 ug/kg) was 702.10 ng·h/mL. The CL ([2]; sc, 230 ug/kg) was 5.045 mL/min/kg, the Cmax ([2]; sc, 230 ug/kg) was 50.90 ng/mL and the MRT ([2]; sc, 230 ug/kg) was 8.20 h. The Tmax ([2]; sc, 230 ug/kg) was 6.00 h, the T½ ([2]; sc, 230 ug/kg) was 4.76 h and the Vd ([2]; sc, 230 ug/kg) was 2.0789 L/kg.

B3: CTP-OXM-CTP-CTP: oxyntomodulin with one CTP on the amino terminus and two on the carboxy terminus, SEQ ID NO: 15 (protein)
chain: MATGSRTSLLLAFGLLCLPWLQEGSASSSSKAPPPSLPSPSRLPGPSDTPILPQHSQGTFTSDYSKYLDSRRAQDFVQWLMNTKRNRNNIASSSSKAPPPSLPSPSRLPGPSDTPILPQSSSSKAPPPSLPSPSRLPGPSDTPILPQ
modifications: CTP-OXM-CTP-CTP
With B3 the Bioavailability [2] was 32.43%, the “bioavailability as calculated from Experiments 1 & 2, change in words” value (from here on “bioavailability as calculated … change in words”) [2] was “increased” and the “AUC(0-t)” value ([2]; iv, 230 ug/kg) was 968.2 ng·h/mL. For the same molecule, the “AUC∞” value ([2]; iv, 230 ug/kg) was 977.4 ng·h/mL, the CL ([2]; iv, 230 ug/kg) was 3.623 mL/min/kg and the MRT ([2]; iv, 230 ug/kg) was 0.80 h. It also gave a T½ ([2]; iv, 230 ug/kg) of 0.28 h, a T½β ([2]; iv, 230 ug/kg) of 1.61 h and a Vd ([2]; iv, 230 ug/kg) of 0.5064 L/kg. For the same molecule, the “AUC(0-t)” value ([2]; sc, 230 ug/kg) was 313.98 ng·h/mL, the “AUC∞” value ([2]; sc, 230 ug/kg) was 320.86 ng·h/mL and the CL ([2]; sc, 230 ug/kg) was 11.038 mL/min/kg. For the same molecule, the Cmax ([2]; sc, 230 ug/kg) was 30.18 ng/mL, the MRT ([2]; sc, 230 ug/kg) was 6.62 h and the Tmax ([2]; sc, 230 ug/kg) was 6.00 h. For the same molecule, the T½ ([2]; sc, 230 ug/kg) was 4.39 h and the Vd ([2]; sc, 230 ug/kg) was 4.13925 L/kg.

B4: CTP-OXM-CTP: oxyntomodulin with one CTP on the amino terminus and one on the carboxy terminus, SEQ ID NO: 9 (protein)
chain: MATGSRTSLLLAFGLLCLPWLQEGSASSSSKAPPPSLPSPSRLPGPSDTPILPQHSQGTFTSDYSKYLDSRRAQDFVQWLMNTKRNRNNIASSSSKAPPPSLPSPSRLPGPSDTPILPQ
modifications: CTP-OXM-CTP
In the case of B4, the Bioavailability [2] is reported as 24.44%, the “bioavailability as calculated … change in words” value [2] is reported as “no significant improvement” and the “AUC(0-t)” value ([2]; iv, 230 ug/kg) is reported as 592.7 ng·h/mL. For the same molecule, the “AUC∞” value ([2]; iv, 230 ug/kg) was 598.0 ng·h/mL, the CL ([2]; iv, 230 ug/kg) was 5.922 mL/min/kg and the MRT ([2]; iv, 230 ug/kg) was 0.81 h. For the same molecule, the T½ ([2]; iv, 230 ug/kg) was 0.25 h, the T½β ([2]; iv, 230 ug/kg) was 1.57 h and the Vd ([2]; iv, 230 ug/kg) was 0.8069 L/kg. For the same molecule, the “AUC(0-t)” value ([2]; sc, 230 ug/kg) was 144.87 ng·h/mL, the “AUC∞” value ([2]; sc, 230 ug/kg) was 170.82 ng·h/mL and the CL ([2]; sc, 230 ug/kg) was 20.7328 mL/min/kg. It also gave a Cmax ([2]; sc, 230 ug/kg) of 31.11 ng/mL, an MRT ([2]; sc, 230 ug/kg) of 4.73 h and a Tmax ([2]; sc, 230 ug/kg) of 1.00 h. The T½ ([2]; sc, 230 ug/kg) was 3.28 h, the Vd ([2]; sc, 230 ug/kg) was 5.88775 L/kg and the “effect on glucose levels / glucose tolerance, in words” value (C57BL/6 mice [3]) was “increased glucose levels”.

B5: CTP-CTP-OXM: oxyntomodulin with two CTPs on the amino terminus, SEQ ID NO: 23 (protein)
chain: MATGSRTSLLLAFGLLCLPWLQEGSASSSSKAPPPSLPSPSRLPGPSDTPILPQSSSSKAPPPSLPSPSRLPGPSDTPILPQHSQGTFTSDYSKYLDSRRAQDFVQWLMNTKRNRNNIARSGCGRGTLGLMGLPFTARFP
modifications: CTPx2-OXM
In the case of B5, the Bioavailability [2] is reported as 23.36%, the “bioavailability as calculated … change in words” value [2] is reported as “no significant improvement” and the “AUC(0-t)” value ([2]; iv, 230 ug/kg) is reported as 488.6 ng·h/mL. For the same molecule, the “AUC∞” value ([2]; iv, 230 ug/kg) was 490.4 ng·h/mL, the CL ([2]; iv, 230 ug/kg) was 7.222 mL/min/kg and the MRT ([2]; iv, 230 ug/kg) was 0.86 h. For the same molecule, the T½ ([2]; iv, 230 ug/kg) was 0.27 h, the T½β ([2]; iv, 230 ug/kg) was 1.20 h and the Vd ([2]; iv, 230 ug/kg) was 0.7481 L/kg. For the same molecule, the “AUC(0-t)” value ([2]; sc, 230 ug/kg) was 114.15 ng·h/mL, the “AUC∞” value ([2]; sc, 230 ug/kg) was 129.85 ng·h/mL and the CL ([2]; sc, 230 ug/kg) was 27.2758 mL/min/kg. It also gave a Cmax ([2]; sc, 230 ug/kg) of 27.77 ng/mL, an MRT ([2]; sc, 230 ug/kg) of 4.10 h and a Tmax ([2]; sc, 230 ug/kg) of 1.00 h. For the same molecule, the T½ ([2]; sc, 230 ug/kg) was 2.74 h, the Vd ([2]; sc, 230 ug/kg) was 6.45976 L/kg and the “effect on glucose levels / glucose tolerance, in words” value (C57BL/6 mice [3]) was “minor impact on glucose tolerance”.

B6: OXM-CTP-CTP-CTP-CTP: oxyntomodulin with four CTPs on the carboxy terminus, SEQ ID NO: 27 (protein)
chain: MATGSRTSLLLAFGLLCLPWLQEGSAHSQGTFTSDYSKYLDSRRAQDFVQWLMNTKRNRNNIASSSSKAPPPSLPSPSRLPGPSDTPILPQSSSSKAPPPSLPSPSRLPGPSDTPILPQSSSSKAPPPSLPSPSRLPGPSDTPILPQSSSSKAPPPSLPSPSRLPGPSDTPILPQ
modifications: OXM-CTPx4
For B6, the “inhibition of food intake, comparison in words” value (C57BL/6 mice [1]; single administration, mice) was “did not last as long as OXM-CTPx5 or OXM-CTPx3”, the “pharmacokinetic profile / PK parameters” value [2] was “superior in these parameters compared to other variants” and the CL ([2]; sc) was 5.923 mL/min/kg. For the same molecule, the Tmax ([2]; sc) was 2.0 h, the Vd ([2]; sc) was 5.3796 L/kg and the “glucose tolerance activity when administered 120 min prior to glucose” value (C57BL/6 mice [3]; Experiment 2, 100 nmol/kg IP 120 min prior to glucose) was “induced glucose tolerance activity”.

B7: OXM-CTP-CTP-CTP: oxyntomodulin with three CTPs on the carboxy terminus, SEQ ID NO: 25 (protein)
chain: MATGSRTSLLLAFGLLCLPWLQEGSAHSQGTFTSDYSKYLDSRRAQDFVQWLMNTKRNRNNIASSSSKAPPPSLPSPSRLPGPSDTPILPQSSSSKAPPPSLPSPSRLPGPSDTPILPQSSSSKAPPPSLPSPSRLPGPSDTPILPQ
modifications: OXM-CTPx3
Molecule B7 has a CL ([2]; sc) of 8.547 mL/min/kg, a Tmax ([2]; sc) of 2.0 h and a T½ ([2]; sc) of 3.78 h. The Vd ([2]; sc) was 2.797 L/kg.
